Patent US20160152729A1 (Novo Nordisk, published 2016)

Experiments:
human TFPIα = target: T1, human TFPIα (human, UniProt P10646 29-304); assay: SPR Biacore T200; antibody captured on anti-human IgG Fc; TFPI as analyte; 1:1 model
T1 construct: recombinant full-length TFPIα in the assays; also called TFPI alpha; full-length TFPIα
Method: (§1) Binding interaction data were obtained by means of Surface Plasmon Resonance in a Biacore T200 instrument. […] chip (GE Healthcare) in flow-cells 1-4 using the amine coupling protocol available with the Biacore T-200 control software version 2.0 (GE Healthcare) and the reagents provided with the Amine Coupling Kit (GE Healthcare). […] Different concentrations of human TFPIα or TFPI (1-79) were tested by diluting the sample in running buffer (10 mM HEPES, pH 7.4, 300 mM NaCl, 5 mM CaCl₂, 0.05% Surfactant P20, 1 mg/ml BSA). Each sample was assayed using 300 seconds of contact time followed by 420-600 seconds of dissociation time at 30 μl/min flow rate. A buffer blank was also assayed. The sensor surface was regenerated with 10 mM Glycine pH 1.7 either for 180 sec at 30 μl/min flow rate or with two cycles each of 30 seconds at 30 μl/min flow rate.
(§2) The Biacore T200 Evaluation software (version 2.0) was used to analyse the data. Determination of binding constants (kₐ, kd, KD) was obtained assuming a 1:1 interaction of TFPI and the monoclonal antibody of interest.

human TFPI (1-79) = target: T2, human TFPI (1-79) (human, UniProt P10646 29-107); assay: as above
T2 construct: Acidic N-terminal region and KPI-1 domain
Method: as §1, §2

Kd (human TFPIα): 0.46 nM
Kd (human TFPI (1-79)): 0.27 nM
B1: mAb 0294 (antibody, human IgG4 S228P, kappa, V domains shown)
VH: QVQLKQSGPGLVQPSQSLSITCTVSGFSLTNYGVHWVRQSPGKGLEWLAVIWRGGSIDYNAAFMSRLSITKDNSKSQVFFKMNSLQADDTAIYYCAKNSHGNYVGYAMDYWGQGTSVTVSS
VL: GIVMTQSQKFMSTTVGDRVSITCKASQSVGPAVAWYQQKPGQSPKLLIYSASNRYTGVPDRFTGSGSGADFTLTISNLHSEDLADYFCQQYTSYPTFGGGTKLEIKR
notes: Murine-human chimera of mAb 2F22, human IgG4 (S241P) constant region, human kappa; also called chimeric mAb 2F22
